In patent CN116675768A (WUHAN ABCLONAL INC, dated 2023):
One block for each binder: values may come before it.

Target: T1, 重组人NEFL蛋白 (human, UniProt P07196 400-543)
T1 construct: Expressed in E. coli Rosetta(DE3) from the vector pET-28a-sumo and purified on a Ni column; also called 人轻肽神经细丝蛋白(NEFL); 神经丝轻链
T1 sequence: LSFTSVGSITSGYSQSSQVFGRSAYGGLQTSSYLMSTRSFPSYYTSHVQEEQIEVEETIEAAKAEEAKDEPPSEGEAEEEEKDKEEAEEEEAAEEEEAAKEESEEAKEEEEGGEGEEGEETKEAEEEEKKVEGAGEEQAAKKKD
Experiment: BLI (Gator); antibody 2 μg/mL, recombinant human NEFL 150 nM and 75 nM

- Kd: 3.2 nM
- koff: 0.00043 s⁻¹
- kon: 134000 M⁻¹ s⁻¹
B1: 兔单克隆抗体2G10 (antibody, V domains shown)
VH: QSLEESGGRLVTPGTRLTLTCTVSGFSLGRYAMGWVRQAPGKGLEWIGIINSYGTTYYASWAKGRFTISKTSTTVDLKITSPTTEDTATYFCARDGYEDYGDYYNAFDPWGPGTLVTVSS
VL: DVVMTQTPASVSEPVGGTVTIKCQASQSIGVTLAWYQQKPGQPPKLLIYKASNLASGVSSRFKGSRSGTEYTLTISDLECADAATYYCQCTWYGPSFVGAFGGGTEVVVKG
notes: also called 抗人NEFL蛋白的兔单克隆抗体2G10; 2G10-biotin

- Kd: 2.03 nM
- koff: 0.000504 s⁻¹
- kon: 248000 M⁻¹ s⁻¹
B2: 兔单克隆抗体1H8 (antibody, V domains shown)
VH: QSLEESGGRLVTPGTPLTLTCAVSGIDLSRYGIDWVRQAPGKGLEWIGTVSAGGDSWYASWAKGRFTISKTSSTTVDLEVTSPTTEDTATYFCAKGATLNLWGQGTLVTVSS
VL: DPVLTQTPSSTSAAVGGTVTINCQSSQNVYGNNWLAWYQKKPGQSPKLLIISASSLPSGVPSRFKGSGSGTQFTLTISDLECDDAATYYCAGGYSGYIYTFGGGTEVVVKG
notes: also called 抗人NEFL蛋白的兔单克隆抗体1H8; 捕获抗体
